For 1 molecule, pEC50 (phosphoY1068 EGF receptor, MSD electrochemiluminescence, A431 cells) results are on record in patent publication US20110177056A1.

In this assay the target is EGF receptor (ErbB1) on A431 cells (UniProt P00533). Briefly: cell-based or functional assay.

B1: EGF variant v3 (EGFv3) (ligand)
chain: NSDPKCPLSHEGYCLNDGVCMYIGTLDRYACNCVVGYVGERCQYRDLKLAELR
B1 displayed a pEC50 (phosphoY1068 EGF receptor, MSD electrochemiluminescence, A431 cells) of 7.61 pEC50.
